Literature values as cited in publication PMC3263801.

Target: hDM2 (Homo sapiens) (UniProt Q00987)
Sequence (Q00987 whole entry): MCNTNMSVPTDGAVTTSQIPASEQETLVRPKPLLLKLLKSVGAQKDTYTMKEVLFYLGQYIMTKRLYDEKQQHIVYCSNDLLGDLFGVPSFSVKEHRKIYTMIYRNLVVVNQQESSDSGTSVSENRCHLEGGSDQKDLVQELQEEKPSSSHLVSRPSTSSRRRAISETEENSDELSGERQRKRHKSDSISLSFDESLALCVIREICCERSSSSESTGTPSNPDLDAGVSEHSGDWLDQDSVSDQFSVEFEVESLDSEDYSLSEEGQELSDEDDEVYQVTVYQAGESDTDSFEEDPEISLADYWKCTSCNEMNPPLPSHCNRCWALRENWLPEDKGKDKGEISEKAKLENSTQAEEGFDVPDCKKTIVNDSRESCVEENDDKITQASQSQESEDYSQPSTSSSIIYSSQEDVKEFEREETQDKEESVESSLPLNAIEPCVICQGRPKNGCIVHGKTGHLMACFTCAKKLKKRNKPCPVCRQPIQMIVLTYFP

Question: For “stapled p53 peptide (from UniProt P04637)”, which Kd is on record?
Answer: Its Kd is 0.9 nM.
